Patent US20250382344A1, “Soluble GLP1/GIP/NPY2 Receptor Triple Agonists” (Boehringer Ingelheim International GmH, priority 2024, published 2025)
Residue numbers refer to the chain shown, from its start. *1 amine or outer side, *2 acyl side, *3 side chain or, on linkers, in order; H or OH if unused. Where no end group is shown, it is not given here. Side-chain parts run from the residue outwards. [ ]: non-standard residue; d: D form. The star is where a group is joined. C20 diacid = O=C(O)CCCCCCCCCCCCCCCCCCC(=O)*; C18 diacid = O=C(O)CCCCCCCCCCCCCCCCC(=O)*; γGlu = O=C(O)[C@H](CCC(=O)[*:2])N[*:1]; εLys = N[C@@H](CCCCN[*:1])C(=O)[*:2]; NMeQ = CN[C@@H](CCC(N)=O)C(=O)O; AEEA = NCCOCCOCC(=O)O; Aib = CC(C)(N)C(=O)O; Ahx = NCCCCCC(=O)O

B1: Compound 38 (peptide)
peptide: YXEGTFTSDYSIXLEKQAQXAFVRHLINKXTRQRY
modifications: Aib at 2, 13, 20, 30; Lys29 epsilon-amino acylated with C18DA-gGlu-gGlu-gGlu-gGlu-gGlu-gGlu-gGlu; C-terminal amide
B2: Compound 10 (peptide)
peptide: B1 peptide with Q19E
modifications: Aib at 2, 13, 20, 30; Lys29 epsilon-amino acylated with C18DA-gGlu-gGlu-gGlu-gGlu-gGlu-gGlu-eLys; C-terminal amide
B3: Compound 107 (peptide)
peptide: B1 peptide with I27L
modifications: Aib at 2, 13, 20, 30; Lys29 epsilon-amino: C18DA-gGlu-gGlu-gGlu-gGlu-gGlu-gGlu-eLys; C-terminal amide
B4: Compound 165 (peptide)
peptide: B1 peptide with X13A
modifications: Aib at 2, 20, 30; Lys29 epsilon-amino: C18DA-gGlu-gGlu-gGlu-gGlu-gGlu-gGlu-eLys; C-terminal amide
B5: Compound 123 (peptide)
peptide: B1 peptide with K16A
modifications: Aib at 2, 13, 20, 30; Lys29 epsilon-amino: C18DA-gGlu-gGlu-gGlu-gGlu-gGlu-gGlu-eLys; C-terminal amide
B6: Compound 13 (peptide)
peptide: B1 peptide
modifications: Aib at 2, 13, 20, 30; Lys29 epsilon-amino acylated with C18DA-gGlu-gGlu-gGlu-gGlu-gGlu-AHX; C-terminal amide
B7: Compound 117 (peptide)
peptide: B1 peptide
modifications: Aib at 2, 13, 20, 30; Lys29 epsilon-amino: C18DA-gGlu-gGlu-gGlu-gGlu-gGlu-OEG-OEG; C-terminal amide
B8: Compound 98 (peptide)
peptide: B1 peptide with A21E
modifications: Aib at 2, 13, 20, 30; Lys29 epsilon-amino: C18DA-gGlu-gGlu-gGlu-gGlu-gGlu-OEG-OEG; C-terminal amide
B9: Compound 49 (peptide)
peptide: B1 peptide
modifications: Aib at 2, 20, 30; aMeL at 13; Lys29 epsilon-amino acylated with C20DA-gGlu-gGlu-gGlu-gGlu-gGlu-gGlu; C-terminal amide
B10: Compound 131 (peptide)
peptide: B1 peptide with E15D, A21E
modifications: Aib at 2, 13, 20, 30; Lys29 epsilon-amino: C18DA-gGlu-gGlu-gGlu-gGlu-gGlu-gGlu-eLys; C-terminal amide

Columns and labels:
hGLP1R = biological target: T1, hGLP1R (Homo sapiens, UniProt P43220); assay: hGLP1R CreLuc assay in 0.5% and 100% plasma (HEK-293 CRE-luciferase reporter cells); assay type: cell-based; details: hGLP1R 100% hP (nM), 100% human plasma, HEK-293 reporter cells
T1 construct: expressed in transfected cells; host or cells: HEK-293 CRE-luciferase reporter cells
T1 sequence (P43220 24-463): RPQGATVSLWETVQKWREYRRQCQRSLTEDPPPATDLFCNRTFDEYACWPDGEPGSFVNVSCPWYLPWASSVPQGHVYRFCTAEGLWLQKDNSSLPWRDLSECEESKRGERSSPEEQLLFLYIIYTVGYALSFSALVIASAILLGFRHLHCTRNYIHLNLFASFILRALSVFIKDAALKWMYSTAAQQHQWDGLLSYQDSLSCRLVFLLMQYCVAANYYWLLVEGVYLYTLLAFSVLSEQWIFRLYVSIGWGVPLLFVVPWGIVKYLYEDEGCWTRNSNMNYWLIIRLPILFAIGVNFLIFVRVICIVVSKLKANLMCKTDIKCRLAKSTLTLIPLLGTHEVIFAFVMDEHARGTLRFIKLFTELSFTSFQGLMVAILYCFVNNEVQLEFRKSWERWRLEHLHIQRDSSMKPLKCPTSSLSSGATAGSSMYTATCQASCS
Text: CHO and HEK-293 recombinant cell lines express a luciferase reporter gene under control of the CAMP responsive element (CRE). As a second recombinant protein the GLP-1 and NPY2 receptors were expressed in the reporter gene HEK cells, and the GIP receptor was expressed in the reporter gene CHO cells, respectively. Stimulation of these recombinant cells with an agonist leads to an increase of intracellular CAMP levels. In the presence of CAMP, the transcription factor CRE binding protein (CREB) binds to the CRE and to the CREB binding protein (CBP), which leads to transcription of the luciferase reporter gene. Peptides upon serial-dilution in 100% DMSO were transferred into 384-well assay plates with 5 μl pre-dispensed assay buffer (1×HBSS, 20 mM HEPES, pH7.4 supplemented with 0.5% human plasma) using acoustic dispensing on a Labcyte ECHO. Cryo-preserved transgenic reporter gene cells were thawed in assay buffer. 20 μl (10.000 cells/well) were added to the plate with the peptides and incubated for 4 hours at 37° C. in a humidified incubator. Following incubation, assay plates are equilibrated to room temperature, followed by addition of 25 μl of Bright-Glo™ Luciferase reagent, incubation at room temperature for 10 minutes and analysis of luminescence (Envision Reader). […] EC50 values were calculated by non-linear regression using sigmoid concentration-response with variable slope.
The same assays were run in the presence of 100% plasma with no additional buffer constituents.

hGIPR = biological target: T2, hGIPR (Homo sapiens, UniProt P48546); assay: hGIPR CreLuc assay in 0.5% and 100% plasma (CHO CRE-luciferase reporter cells); assay type: cell-based
T2 construct: expressed in transfected cells; host or cells: CHO CRE-luciferase reporter cells
T2 sequence (P48546 22-466): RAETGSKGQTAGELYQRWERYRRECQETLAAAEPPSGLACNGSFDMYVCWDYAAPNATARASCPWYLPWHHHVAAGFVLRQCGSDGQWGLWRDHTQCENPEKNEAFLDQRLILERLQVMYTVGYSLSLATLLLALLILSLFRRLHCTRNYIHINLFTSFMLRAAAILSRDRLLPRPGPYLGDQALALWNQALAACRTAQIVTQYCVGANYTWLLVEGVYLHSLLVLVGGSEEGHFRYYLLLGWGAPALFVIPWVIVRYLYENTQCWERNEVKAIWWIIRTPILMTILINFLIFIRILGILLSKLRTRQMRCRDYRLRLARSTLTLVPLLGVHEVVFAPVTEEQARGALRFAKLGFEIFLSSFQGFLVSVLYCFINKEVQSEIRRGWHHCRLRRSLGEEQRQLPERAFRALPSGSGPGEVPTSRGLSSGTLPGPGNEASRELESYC

[1] = biological target: T3, human neuropeptide Y2 receptor (human, UniProt P49146 1-381); assay: cell-based or functional assay
T3 sequence (looked up): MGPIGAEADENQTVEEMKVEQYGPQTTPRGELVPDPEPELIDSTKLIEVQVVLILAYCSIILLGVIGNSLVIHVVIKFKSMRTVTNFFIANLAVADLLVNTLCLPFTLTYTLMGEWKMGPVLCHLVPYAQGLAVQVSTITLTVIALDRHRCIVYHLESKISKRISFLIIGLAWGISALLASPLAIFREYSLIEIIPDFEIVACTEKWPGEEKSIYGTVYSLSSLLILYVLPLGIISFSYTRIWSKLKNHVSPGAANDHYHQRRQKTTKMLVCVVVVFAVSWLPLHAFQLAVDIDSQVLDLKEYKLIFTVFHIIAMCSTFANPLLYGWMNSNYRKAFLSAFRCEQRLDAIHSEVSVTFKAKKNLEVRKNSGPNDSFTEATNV

[2] = biological target: T4, human neuropeptide Y2 receptor (human, UniProt P49146 1-381); assay: cell-based or functional assay; remark: listed apart in the source
T4 sequence (looked up): T3 sequence (looked up)

Molecule	EC50, CreLuc reporter, 0.5% hP [1] [nM]	EC50, CreLuc reporter, 100% hP [1] [nM]	EC50, CreLuc reporter, 0.5% hP [2] [nM]	EC50, CreLuc reporter, 100% hP [2] [nM]	other results
CC[C@H](C)[C@H](NC(=O)[C@H](Cc1ccccc1)NC(=O)[C@H](C)NC(=O)C(C)(C)NC(=O)[C@H](CCC(N)=O)NC(=O)[C@H](C)NC(=O)[C@H](CCC(N)=O)NC(=O)[C@H](CCCCN)NC(=O)[C@H](CCC(=O)O)NC(=O)[C@H](CC(C)C)NC(=O)C(C)(C)NC(=O)[C@@H](NC(=O)[C@H](CO)NC(=O)[C@H](CC(C)C)NC(=O)[C@H](CC(=O)O)NC(=O)[C@H](CO)NC(=O)[C@@H](NC(=O)[C@H](Cc1ccccc1)NC(=O)[C@@H](NC(=O)CNC(=O)[C@H](CCC(=O)O)NC(=O)C(C)(C)NC(=O)[C@@H](N)Cc1ccc(O)cc1)[C@@H](C)O)[C@@H](C)O)[C@@H](C)CC)C(=O)N[C@@H](CCCNC(=N)N)C(=O)N[C@@H](Cc1c[nH]cn1)C(=O)N[C@@H](CC(C)C)C(=O)N[C@H](C(=O)N[C@@H](CC(N)=O)C(=O)N[C@@H](CCCCNC(=O)[C@@H](N)CCCCNC(=O)CC[C@H](NC(=O)CC[C@H](NC(=O)CC[C@H](NC(=O)CC[C@H](NC(=O)CC[C@H](NC(=O)CC[C@H](NC(=O)CCCCCCCCCCCCCCCCCCC(=O)O)C(=O)O)C(=O)O)C(=O)O)C(=O)O)C(=O)O)C(=O)O)C(=O)NC(C)(C)C(=O)N[C@H](C(=O)N[C@@H](CCCNC(=N)N)C(=O)N[C@@H](CCC(N)=O)C(=O)N[C@@H](CCCNC(=N)N)C(=O)N[C@@H](Cc1ccc(O)cc1)C(N)=O)[C@@H](C)O)[C@@H](C)CC [Compound 21, Y-Aib-E-G-T-F-T-S-D-L-S-I-Aib-L-E-K-Q-A-Q-Aib-A-F-I-R-H-L-I-N-K(1,3)-Aib-T-R-Q-R-Y-NH2.C20DA-gGlu-gGlu-gGlu-gGlu-gGlu-gGlu-eLys(1,2)]					EC50 (hGLP1R): 13.9 nM; EC50 (hGIPR; hGIPR 0.5% hP (nM), 0.5% human plasma): 0.2 nM; EC50 (hGIPR; hGIPR 100% hP (nM), 100% human plasma): 5.6 nM
Y[Aib]EGTFTSDYSI[Aib]LEKQAQ[Aib]EFVRHLINK([εLys-γGlu-γGlu-γGlu-γGlu-γGlu-γGlu-γGlu-C18 diacid])[Aib]TRQRY-NH2 [Compound 30]	33.9	81.1			
Y[Aib]EGTFTSDYSI[Aib]LEKQAQ[Aib]AFVRHLINK([Ahx-γGlu-γGlu-γGlu-γGlu-γGlu-γGlu-C18 diacid])[Aib]TRQRY-NH2 [Compound 9]	25.1	75.4			
Y[Aib]EGTFTSDYSI[Aib]LEKQAQ[Aib]AFVRHLINK([γGlu-γGlu-γGlu-γGlu-γGlu-γGlu-C18 diacid])[Aib]TR[NMeQ]RY-NH2 [Compound 2]	89.9	258			
Y[Aib]EGTFTSDYSI[Aib]LDEQAQ[Aib]AFVRHLINK([εLys-γGlu-γGlu-γGlu-γGlu-γGlu-C18 diacid])[Aib]TRQRY-NH2 [Compound 108]			20.3	120	
Y[Aib]EGTFTSDYSI[Aib]LEKQAQ[Aib]AFVRHLINK([γGlu-γGlu-γGlu-εLys-γGlu-γGlu-γGlu-C18 diacid])[Aib]TRQRY-NH2 [Compound 168]			27.7		
Y[Aib]EGTFTSDYSI[Aib]LEKQAQ[Aib]AFVRHLINK([Ahx-γGlu-γGlu-γGlu-γGlu-γGlu-γGlu-C20 diacid])[Aib]TRQRY-NH2 [Compound 157]			15.9	135	
B1		141			
B2	26.3	28.2			
B3			13.3	20.3	
B4			17.1	32.9	
B5			51.6	232	
B6	18.7	121			
B7				39.2	
B8			27.3	202	
B9		763			
B10			17.5	85.9	
Y[Aib]EGTFTSDYSI[Aib]LEKQAQ[Aib]AFVRHLINK([γGlu-γGlu-εLys-γGlu-γGlu-γGlu-γGlu-C18 diacid])[Aib]TRQRY-NH2 [Compound 34]	14.6	28			
Y[Aib]EGTFTSDYSI[Aib]LEKQAQ[Aib]AFVRHLINK([AEEA-γGlu-γGlu-γGlu-γGlu-γGlu-γGlu-C18 diacid])[Aib]TRQRY-NH2 [Compound 47]	19.9	72.6			
